Data set [1] deals with T1, CRD-BP WT (mouse, UniProt O88477 1-577). The data set is described as follows: fluorescence polarization; 10 nM oligo, 0-1000 nM protein; EMSA as in refs 21,22 (buffer not given; competitor preincubation 35 C); FP: binding buffer stock 10 mM Tris-HCl pH 7.4, 2.5 mM EDTA, 5% glycerol, 0.002% Triton X-100, 37 C 30 min. The settings on record: protein: recombinant; (pET28b(+), Ni-NTA); label: 3' 6-FAM. On the technique in general: In fluorescence polarisation assays a small probe gives low polarisation when free and higher when bound to something large.

Data set [2] concerns the target T1, CRD-BP WT. Nature of the data set: fluorescence polarization; 10 nM RNA, 0-1000 nM protein; EMSA as in refs 21,22 (buffer not given; competitor preincubation 35 C); FP: binding buffer stock 10 mM Tris-HCl pH 7.4, 2.5 mM EDTA, 5% glycerol, 0.002% Triton X-100, 37 C 30 min. The settings on record: protein: recombinant; (pET28b(+), Ni-NTA); label: 3' 6-FAM.

T1 sequence (O88477 whole entry): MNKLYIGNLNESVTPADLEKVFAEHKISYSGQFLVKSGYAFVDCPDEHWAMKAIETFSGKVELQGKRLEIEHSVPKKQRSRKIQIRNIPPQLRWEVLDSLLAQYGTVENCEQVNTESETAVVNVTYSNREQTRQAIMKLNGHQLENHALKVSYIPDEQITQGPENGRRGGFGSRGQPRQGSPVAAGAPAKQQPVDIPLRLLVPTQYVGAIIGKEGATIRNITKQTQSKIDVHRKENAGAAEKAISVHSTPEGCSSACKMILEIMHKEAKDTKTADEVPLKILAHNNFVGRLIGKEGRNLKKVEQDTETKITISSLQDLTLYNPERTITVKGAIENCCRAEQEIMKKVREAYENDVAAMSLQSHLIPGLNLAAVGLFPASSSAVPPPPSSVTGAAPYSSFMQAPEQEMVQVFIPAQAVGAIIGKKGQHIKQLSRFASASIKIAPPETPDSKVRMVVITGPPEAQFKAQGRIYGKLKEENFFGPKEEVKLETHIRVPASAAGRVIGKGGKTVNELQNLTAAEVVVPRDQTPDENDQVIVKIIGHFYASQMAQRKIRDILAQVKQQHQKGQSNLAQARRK

As to TAAAAATCTCAAATCAAGTTTC (ssDNA) [MHO-1_FL], the binding result in data set [1] was “no binding”.

As for ATTCAGTTCACAGATACTGCAC (ssDNA) [MHO-7_FL], the binding result in data set [1] is reported as “no binding”.

Take AAAUUAGGGCCCAAUUAAUAAUCAGCAAGAAUUUGAUCG (ssRNA) [FL-CD44 RNA]: in data set [2], the binding result is listed as “binds”.

The record behind these values is paper PMC5300761, “Characterizing the Coding Region Determinant-Binding Protein (CRD-BP)-Microphthalmia-associated Transcription Factor (MITF) mRNA interaction”.
